Data published in the supplement of paper PMC10567573.

B1: PTPRD (parent)
chain: FICQATGDPRPKIVWNKKGKKVSN
B2: KRT13 (parent)
chain: TPGIDLTRVLAEMREQYEAMAERN

Variants of: B1
Assay: protein stability index of a GFP-peptide fusion (GPS, HEK-293T) (PSI 1-6); higher = more stable
Settings: c terminus: a fixed tail appended
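Also: lentivirally expressed fusions sorted by FACS into six bins by GFP to DsRed ratio, PSI derived from sequencing read proportions per bin multiplied by bin number.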

Protein stability index, by site and new letter:
V14: F 3.73, D 2.35
D8: L 1.5, G 1.98, F 1.85, Q 1.77, S 1.92, C 1.94, R 2.24, A 2.04, M 1.8, T 2.11, I 2.33, H 1.6, E 1.91, K 2.5, Y 1.45, P 1.8, N 2.16
C3: V 2.31, K 2.57, S 1.92, N 1.88, D 2.85, P 3.54, W 1.97, Y 1.15, R 2.06, H 2.56, L 1.86, I 2.38, G 2.2, Q 2.05, T 1.98, E 3.04, F 1.92, M 1.75, A 2.55
T6: R 2, Y 2.24, N 1.78, S 2.94, A 1.92, L 1.47, P 1.96, C 2.81, G 2.18, I 1.61, V 1.91, K 2.02, D 1.71, Q 2.17, M 1.65, F 1.68, H 1.68, E 2.05
P11: Q 2.19, A 2.34, V 1.18, G 2.04, D 2.11, M 1.03, Y 2.31, H 2.4, L 3.08, K 1.45, T 2.07, S 2.18, C 1.32, W 1.87, R 2.5, N 1.87, F 1.52, E 2.88, I 2.31

Variants of: B2
Assay: as above
Settings: c terminus: a fixed tail appended

Protein stability index of substitutions, site by site:
A21: V 3.55, I 4.27, S 4.65, F 3.98, P 4.93, Q 4.54, C 4.29, M 4.09, R 4.18, Y 4.5, H 4.07, K 3.94, L 4.39, D 4.91, G 2.79
N24: L 4.83, Q 4.23, Y 3.8, G 4.87, I 4.63, E 4.51, K 3.27, A 3.56, T 4.22, C 3.08, F 4, M 4.67, D 5.03, P 4.07, S 4.51, W 4.55, H 4.79
M20: N 3.18, E 4.49, C 4.1, F 3.42, Y 4.62, K 4.81, I 3.88, Q 4.13, W 5.32, D 4.79, L 3.74, H 4.32, V 3.09, A 4.74, G 4.22, T 4.25, P 4.81, R 4.68
E22: C 3.7, L 4.4, S 3.52, P 3.98, F 2.98, Y 3, A 4.08, G 4.02, I 2.79, H 3.73, V 2.56, D 4.66, W 2.86, M 4.03, N 4.04, T 3.87, K 4.39
R23: W 2.83, T 4.08, S 4.56, G 3.98, K 4.03, V 3.01, D 4.84, L 3.34, Y 3.61, E 4.9, A 3.9, C 4.43, F 3.78, I 2.94, M 3.27, H 4.21, P 4.62, Q 4.39, N 4.59
A19: W 3.4, S 4.53, T 4.16, Y 3.76, V 3.23, R 3.57
